The labels stand for the following.
B1: HDV Ribozyme (parent)
chain: GGCCGGCAUGGUCCCAGCCUCCUCGCUGGCGCCGGCUGGGCAACAUUCCGAGGGGACCGUCCCCUCGGUAAUGGCGAAUGGGACCCA

Variants of B1 are the subject of the data set. The experiment in a line: self-cleavage, relative activity (ratio to wild type); higher = more cleavage; co-transcriptional.
In the case of A70U A87G, the self-cleavage is 1.02. As for A70U A87U, the figure is 1.2; as for G73U G81A, 0.178. As for G73U G81C, the figure is 0.115; as for U72C A78C, 0.229. As for U72C G73U, the figure is 0.272; as for A70G A78G, 0.655. Consider A70G A78C, for which the self-cleavage stood at 0.151. As for U72C G82U, the figure is 0.145; as for U72C G82A, 0.248; as for U72C G82C, 0.26. The same measure for U69C G82U: 0.554; for U69C G82C: 0.361. The same measure for U72G C86U: 0.705; for G74A G76C: 0.464; for G74A A83C: 0.232. For G74A A83G, the self-cleavage turned out to be 0.205.

Turning to A70U U79A, the self-cleavage worked out at 0.831. As for A70U U79C, the figure is 0.277; as for U69G C85G, 1.01. The same measure for U69G C85A: 1.18. As for G73C C85A, the figure is 0.231; as for A71C U79G, 0.437.

With A71C U79A, the self-cleavage was determined as 0.529. As for G73C G80U, the figure is 0.141; as for A70C A83C, 0.434; as for A70C A83G, 0.543. As for U72C U79C, the figure is 0.277; as for U72C U79A, 0.369; as for G73A A78C, 0.265.

U69G A83U: the self-cleavage stood at 0.465. The same measure for U69G A83C: 0.554; for A71U G73A: 0.432; for U72A G76C: 0.65. As for U72A G76U, the figure is 0.863; as for U69G U79A, 0.935. As for G73A U79G, the figure is 0.248; as for G73A U79C, 0.186. For G73A U79A, the self-cleavage turned out to be 0.231.

For the variant G73C C75A, the self-cleavage is 0.173. As for G73C C75G, the figure is 0.0573; as for A70G U72C, 0.54; as for G73C A77C, 0.287. As for G73C A77U, the figure is 0.151. Take A70C A78C: the self-cleavage was found to be 0.208. The same measure for U72A A87G: 0.452. As for U72A A87U, the figure is 0.729; as for U72A A87C, 0.81; as for U69G G80A, 0.233. The same measure for U69G G80U: 0.31; for A70C C75G: 0.0615. With A70C C75U, the self-cleavage came to 0.0875. As for A71G G73A, the figure is 0.689; as for G73C C84G, 0.086; as for G73C C84U, 0.321. On to G73C C84A, for which the self-cleavage amounted to 0.277. The same measure for A70U A77U: 0.35. The same measure for A70U A77G: 0.665; for A71G U79A: 0.997.

As for A71G U79G, the self-cleavage worked out at 0.256. As for A71G C75A, the figure is 0.158. As for A71G C75G, the figure is 0.0755. As for A70C C85G, the figure is 1.2.

Turning to A70C C85U, the self-cleavage was found to be 1.07.

Consider U72A A77C, for which the self-cleavage came out at 0.199. The same measure for G73U A77G: 0.306. As for G73U A77C, the figure is 0.0898; as for U72A A78U, 0.161; as for U72A A78G, 0.504. The same measure for G73A G76U: 0.906; for A71C G73U: 0.141; for A71C G73C: 0.378. As for G73C G81U, the self-cleavage was determined as 0.259. The same measure for G73U A78G: 0.332; for G73U A78C: 0.173. Regarding G73U A78U, the self-cleavage was 0.119.

For G73A G81A, the self-cleavage stood at 0.176. As for G73A C85U, the figure is 0.73. The same measure for G73A C85A: 0.882; for A70C C86G: 1.35. As for G73A A77C, the figure is 0.161; as for A70C G74C, 0.262. As to A70C G74A, the self-cleavage came to 0.308. As for A71U G74C, the figure is 0.244; as for G74A A78G, 0.111. As for G74A A78C, the figure is 0.0811; as for A71C G74A, 0.453. The same measure for A71C G74C: 0.128. Take A71U C75U: the self-cleavage was 0.218. As for G73C C86A, the figure is 0.641. As for A70G C85G, the figure is 0.831; as for A70C A77C, 0.244.

Consider A70C A77G, for which the self-cleavage is 0.808. The same measure for U69C U72G: 0.529. The same measure for A71C C75G: 0.131; for A71C C75U: 0.199. A71C C75A: the self-cleavage was determined as 0.0852. As for A70G G76U, the figure is 0.997; as for A70G G76C, 0.956; as for U69G A87C, 0.822.

For U69G A71C, the self-cleavage came to 0.575. The same measure for U69G A71U: 0.974; for U69G G74C: 0.383.

Take G73A G82A: the self-cleavage is 0.18. The same measure for G73A G82U: 0.151; for U72G G81U: 0.178; for U72G G81A: 0.302. As for G74A C84U, the figure is 0.446; as for A70U G73A, 0.614. A70U G73U: the self-cleavage is 0.169. As for U72G G82A, the figure is 0.0978. The same measure for U69G G82A: 0.453. The same measure for G73A C75A: 0.246; for A70C G73U: 0.302; for A70C G73C: 0.514. Turning to A70C G73A, the self-cleavage is 0.407. The same measure for A70U G82C: 0.35; for A70U G82A: 0.469.

For A70U G82U, the self-cleavage was 0.567. In the case of A70C A87G, the self-cleavage is 0.858. The same measure for A70C A87U: 1.04; for A70C A87C: 0.831; for A70U A78G: 0.7.

A70U A78U: the self-cleavage was found to be 0.404.

As to A70G G82A, the self-cleavage amounted to 0.394. As for A70G G82C, the figure is 0.259; as for A71C C86U, 0.665; as for A71C C86A, 0.831. As for A70U G76U, the self-cleavage was found to be 1.07. As for A71U G76A, the figure is 0.932; as for A71U G76C, 0.914. As for G73A C86U, the figure is 0.831. As for G73A C86G, the figure is 0.609. For G73A A83U, the self-cleavage was determined as 0.323. Take G73U C84G: the self-cleavage was 0.329. As for G73U C84A, the figure is 0.158; as for A71G A77G, 0.88. As for A71G A77U, the figure is 0.764; as for U72A G81A, 0.113. As for U72A G81C, the figure is 0.0898; as for U72A G81U, 0.166; as for A71C A87G, 0.993. G73A A87G: the self-cleavage worked out at 0.697. As for G73A A87U, the figure is 0.803; as for A70C C84U, 0.594; as for A70C C84A, 0.646.

U69G G73A: the self-cleavage is 0.746.

Turning to U69G G73C, the self-cleavage worked out at 0.665. G73A G80U: the self-cleavage was 0.153. In the case of G73A G80C, the self-cleavage was 0.165. For G73A G80A, the self-cleavage turned out to be 0.0652.

For the variant G73U C85G, the self-cleavage was determined as 0.437. As for G73U C85A, the figure is 0.397. As for A71G G81C, the figure is 0.131; as for A71G G81A, 0.475; as for U72A U79C, 0.248.

Regarding U72C A87U, the self-cleavage was found to be 0.595. Regarding A70U G80A, the self-cleavage worked out at 0.445. As to A70U G80C, the self-cleavage turned out to be 0.213.

Take U72A G74C: the self-cleavage turned out to be 0.339. The same measure for A71G C85G: 1.03. The same measure for A71G C85A: 0.674; for A71G C85U: 0.962; for G73C A78U: 0.155. Regarding G73C A78C, the self-cleavage came out at 0.0773. G73U C86A: the self-cleavage stood at 0.543. Turning to G73U C86U, the self-cleavage amounted to 0.448.

(Values after the RNAGym collection of RNA variant scans (doi:10.7554/elife.80360).)
